Test results: the RNAGym collection of RNA variant scans (doi:10.7554/elife.80360)

B1: CPEB3 Ribozyme (parent)
chain: GGGGGCCACAGCAGAAGCGUUCACGUCGCGGCCCCUGUCAGAUUCUGGUGAAUCUGCGAAUUCUGCUGU

Variants of: B1
Experiment: self-cleavage, relative activity (ratio to wild type); higher = more cleavage; co-transcriptional

In order of falling self-cleavage:
1. G14U U69C  1.03
2. A13G U69A  1
3. A13G A52U  0.989
4. G14A C63U  0.98
5. A13G G48C  0.971
6. G14C C63G  0.971
7. A13G  0.97
8. A15C C45U  0.949
9. G14U U69G  0.94
10. A13G C54U  0.937
11. G14U U69A  0.923
12. A13U C34U  0.917
13. A13U G58U  0.911
14. A13U U49A  0.91
15. G14U G68A  0.908
16. G14U G48C  0.907
17. A13U C45U  0.904
18. A13C U46A  0.901
19. A13U U49G  0.901
20. A13U C33U  0.894
21. G14U G58U  0.893
22. A13U  0.888
23. A13C U46G  0.885
24. A13U G47C  0.877
25. G14A A23U  0.875
26. G14A G68A  0.866
27. A15C C45G  0.865
28. G14U U49A  0.858
29. G14U  0.855
30. A13G A42G  0.855
31. G14U G48U  0.855
32. A13G A16G  0.855
33. A15C C32U  0.853
34. A13G C45G  0.847
35. G14A U49G  0.842
36. G14A  0.832
37. A13U U67G  0.827
38. G14A G47A  0.826
39. G14A A15G  0.823
40. G14C G58U  0.817
41. A15C A52U  0.816
42. G14A A51G  0.81
43. G14C G48U  0.805
44. G14A C32U  0.802
45. A15C A59G  0.798
46. A13U A23C  0.793
47. A13U G58C  0.788
48. A13C U67A  0.783
49. G14U G68C  0.779
50. A15C C45A  0.772
51. G14C U69A  0.769
52. A13G U26A  0.767
53. G14A G68U  0.765
54. A13G C66U  0.756
55. G14A C54U  0.755
56. G14U A59G  0.753
57. A15C A52C  0.748
58. G14A U49A  0.742
59. G14U U67A  0.733
60. G14A C63G  0.73
61. G14C A15G  0.725
62. A13G U55A  0.722
63. A13G A16U  0.714
64. A13C U67C  0.706
65. G14C  0.689
66. A13U U44A  0.659
67. G14C C34U  0.653
68. A13G G65A  0.653
69. A13G A42C  0.647
70. G14A U21A  0.646
71. A13C U53G  0.63
72. A13U G31A  0.623
73. A13C U64C  0.614
74. A13U A42C  0.586
75. G14U U44G  0.566
76. G14C A52U  0.562
77. G14U U44A  0.553
78. G14C G58C  0.497
79. G14C A51U  0.489
80. G14U U62A  0.482
81. G14U U26C  0.478
82. A13C U62C  0.475
83. A13U A59U  0.464
84. A15C G41U  0.463
85. G14U U61A  0.461
86. G14C A52C  0.459
87. A13G C57A  0.448
88. G14C C66G  0.447
89. G14A U64A  0.444
90. G14A U26C  0.432
91. A13G C27A  0.425
92. G14A A15U  0.424
93. A13U C39U  0.422
94. G14U A15C  0.415
95. G14A U61G  0.414
96. A13U C66G  0.413
97. G14A U21C  0.413
98. G14U A42G  0.404
99. G14A U26G  0.401
100. A13G C18U  0.382
101. G14C A23G  0.365
102. G14U A15U  0.358
103. A15C A59U  0.353
104. A13C U53C  0.352
105. A13C U62A  0.348
106. G14C U26A  0.346
107. A13G G65C  0.345
108. G14A A59C  0.343
109. G14U C33G  0.341
110. A13U G41U  0.333
111. G14U U55A  0.325
112. G14A C54G  0.312
113. G14U A59C  0.309
114. G14C U38A  0.308
115. A13U U62G  0.299
116. A13G C66A  0.295
117. G14C U38C  0.284
118. A13U U62C  0.278
119. G14U G41U  0.276
120. A13U A40U  0.265
121. G14A G41U  0.264
122. G14A G65A  0.258
123. G14A U61C  0.246
124. G14C G65U  0.242
125. A13G G30U  0.241
126. G14A C57U  0.229
127. G14A A40U  0.21
128. G14A G31U  0.207
129. G14U G41A  0.206
130. G14C C57G  0.203
131. A13G U20C  0.199
132. G14U G37A  0.197
133. A13U C57A  0.194
134. G14C U44C  0.189
135. G14C A15U  0.179
136. G14A G41C  0.179
137. G14A C22A  0.178
138. A13G A16C  0.175
139. A13U C22U  0.171
140. G14A C22U  0.17
141. G14U G19U  0.17
142. A13U G28U  0.165
143. A13U A40C  0.163
144. A13U C22A  0.161
145. G14C G30U  0.157
146. G14C G19U  0.156
147. G14C C18U  0.155
148. G14C U20G  0.151
149. G14U G19C  0.15
150. G14C C18A  0.149
151. A13U C22G  0.148
152. G14C G30C  0.142
153. A13G G28A  0.139
154. G14A G37U  0.138
155. A13G C27G  0.137
156. G14A U36G  0.134
157. A13G C29U  0.133
158. G14U G17C  0.128
159. A13U C24G  0.127
160. G14C G19C  0.126
161. G14A U21G  0.121
162. A13U G17C  0.116
163. G14A C27G  0.116
164. G14A G37C  0.114
165. A13U G25U  0.108
166. A13U G25C  0.0789
167. A13G U20A  0.0779
